Measurements: patent publication US20020161202A1, “Apo-2DcR” (Genentech, Inc., priority 1997, published 2002)

Legend:
[1] = system: Apo-2L; experiment: Binding of radioiodinated Apo-2L to Apo-2DcR-transfected 293 cells; conditions: 125I-Apo-2L; 293 cells transfected with full-length Apo-2DcR vs pRK5; FIG. 4
Protocol: To test whether Apo-2DcR binds to Apo-2L, and to assess whether Apo-2DcR is GPI-linked, binding of radioiodinated Apo-2L to Apo-2DcR-transfected 293 cells was analyzed. The effect of pre-treatment of the cells with phosphatidylinositol-specific phospholipase C (PI-PLC) on the binding was also analyzed.
Human 293 cells (ATCC CRL 1573) were plated in 100 mm plates (1×10^6 cells/plate) and transfected with 20 μg/plate pRK5 or pRK5 encoding the full-length Apo-2DcR (described in Example 1, ATCC deposit 209087) using calcium phosphate precipitation. After 24 hours, the cells were harvested in PBS/10 mM EDTA, washed in phosphate buffered saline (PBS), resuspended in 2 ml PBS per original plate and divided into two 1 ml aliquots per transfection. PI-PLC [Treanor et al., Nature, 382:80-83 (1996)] (1 μg/ml) was added to one of the two aliquots derived from each transfection, and the cells were incubated 1 hour at 37° C. The cells were washed and respuspended in 1 ml PBS containing 1% BSA (Sigma), and 0.04 ml aliquots were placed into tubes in triplicate. […] After a 1 hour incubation at room temperature, the cells were washed in ice cold PBS, pelleted, and counted for radioactivity.

[2] = system: Human 293 cells; experiment: Apo-2L apoptosis induction in Apo-2DcR-transfected 293 cells (morphology of GFP-positive cells); format: cell-based; conditions: 293 cells transfected with pRK5-hApo-2DcR; Apo-2L 0.5 μg/ml; examined over 6 hours; FIG. 5
Protocol: Human 293 cells, which express both DR4 and Apo-2 mRNA (data not shown), were plated in 100 mm plates (1×10^6 cells/plate) and transfected with 3 μg per plate pRK encoding green fluorescent protein (GFP; purchased from Clontech) together with 20 μg/plate pRK5 or pRK5-hApo-2DcR (see Example 2) using calcium phosphate precipitation. After 18 hours, the cells were treated with PBS or with Apo-2L (Pitti et al., supra, 0.5 μg/ml) and examined over 6 hours under a fluorescence microscope equipped with Hoffman optics (which enables clear viewing of non-fixed cells on plastic). GFP-positive cells were identified by green fluorescence and scored for apoptosis by morphologic criteria such as membrane blebbing and cytoplasmic condensation.

[3] = system: NF-κB; experiment: Activation of NF-κB by Apo-2L in Apo-2DcR-transfected 293 cells (electrophoretic mobility shift assay); format: cell-based, human; conditions: 293 cells transfected with pRK5-hApo-2DcR, 18 hours; Apo-2L 0.5 μg/ml; FIG. 6
Protocol: In a similar experiment, the 293 cells were transfected by pRK5 or pRK5-hApo-2DcR (20 μg/plate) and analyzed 18 hours later for activation of NF-κB by Apo-2L (0.5 μg/ml), as in Example 10 below.
HeLa cells were transfected with pRK5 expression plasmids encoding full-length native sequence Apo-2, DR4 or Apo-3 and harvested 24 hours after transfection. Nuclear extracts were prepared and 1 μg of nuclear protein was reacted with a ^32P-labelled NF-κB-specific synthetic oligonucleotide probe […] (SEQ ID NO: 12) [see, also, MacKay et al., J. Immunol., 153:5274-5284 (1994)], alone or together with a 50-fold excess of unlabelled probe, or with an irrelevant ^32P-labelled synthetic oligonucleotide […] (SEQ ID NO: 13). In some samples, antibody to p65/RelA subunits of NF-κB (1 μg/ml; Santa Cruz Biotechnology) was added. DNA binding was analyzed by an electrophoretic mobility shift assay as described by Hsu et al., supra; Marsters et al., supra, and MacKay et al., supra.

[4] = system: NF-κB; experiment: NF-κB activation in HeLa cells transfected with receptor plasmids (electrophoretic mobility shift assay); format: cell-based, human; conditions: harvested 24 hours after transfection, FIG. 12A
Protocol: HeLa cells were transfected with pRK5 expression plasmids encoding full-length native sequence Apo-2, DR4 or Apo-3 and harvested 24 hours after transfection. […] Immunol., 153:5274-5284 (1994)], alone or together with a 50-fold excess of unlabelled probe, or with an irrelevant ^32P-labelled synthetic oligonucleotide […] NO: 13). In some samples, antibody to p65/RelA subunits of NF-κB (1 μg/ml; Santa Cruz Biotechnology) was added. DNA binding was analyzed by an electrophoretic mobility shift assay as described by Hsu et al., supra; Marsters et al., supra, and MacKay et al., supra.

Apo-2L, sequence (P50591 114-281 limits assumed): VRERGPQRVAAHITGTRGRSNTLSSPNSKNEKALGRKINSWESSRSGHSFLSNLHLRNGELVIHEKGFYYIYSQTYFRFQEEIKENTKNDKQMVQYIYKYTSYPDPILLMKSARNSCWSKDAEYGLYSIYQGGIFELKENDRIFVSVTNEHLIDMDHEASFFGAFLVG
Apo-2L, sequence (O14798 26-236 partner limits assumed): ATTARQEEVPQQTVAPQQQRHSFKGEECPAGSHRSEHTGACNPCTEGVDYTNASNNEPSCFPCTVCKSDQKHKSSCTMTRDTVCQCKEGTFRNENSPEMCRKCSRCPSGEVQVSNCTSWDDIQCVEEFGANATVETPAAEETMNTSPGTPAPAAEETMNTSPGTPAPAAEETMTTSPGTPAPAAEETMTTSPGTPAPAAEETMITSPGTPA

B1: Apo-2DcR: full-length native sequence human Apo-2DcR polypeptide, 259 amino acids, GPI-anchored TNFR family member; expressed by transfection (protein)
chain: ATTARQEEVPQQTVAPQQQRHSFKGEECPAGSHRSEHTGACNPCTEGVDYTNASNNEPSCFPCTVCKSDQKHKSSCTMTRDTVCQCKEGTFRNENSPEMCRKCSRCPSGEVQVSNCTSWDDIQCVEEFGANATVETPAAEETMNTSPGTPAPAAEETMNTSPGTPAPAAEETMTTSPGTPAPAAEETMTTSPGTPAPAAEETMTTSPGTPA
- amount of specific Apo-2L binding [1]: marked increase
- responsiveness to Apo-2L as measured by apoptosis induction [2]: markedly reduced
- Apo-2L function as measured by NF-κB activation [3]: inhibits Apo-2L function

B2: Apo-3/DR3: full length native sequence human TNFR family polypeptide with cytoplasmic death domain; expressed by transfection (protein, UniProt Q93038 1-417, looked up)
chain: MEQRPRGCAAVAAALLLVLLGARAQGGTRSPRCDCAGDFHKKIGLFCCRGCPAGHYLKAPCTEPCGNSTCLVCPQDTFLAWENHHNSECARCQACDEQASQVALENCSAVADTRCGCKPGWFVECQVSQCVSSSPFYCQPCLDCGALHRHTRLLCSRRDTDCGTCLPGFYEHGDGCVSCPTSTLGSCPERCAAVCGWRQMFWVQVLLAGLVVPLLLGATLTYTYRHCWPHKPLVTADEAGMEALTPPPATHLSPLDSAHTLLAPPDSSEKICTVQLVGNSWTPGYPETQEALCPQVTWSWDQLPSRALGPAAAPTLSPESPAGSPAMMLQPGPQLYDVMDAVPARRWKEFVRTLGLREAEIEAVEVEIGRFRDQQYEMLKRWRQQQPAGLGAVYAALERMGLDGCVEDLRSRLQRGP
modifications: full-length
notes: expressed by transfection
- NF-κB activation upon transfection [4]: activation observed
